Reference: the Human Domainome abundance scans (Beltran et al. 2025)
± gives the uncertainty stated by the source.

B1: MEF2-activating motif and SAP domain-containing transcriptional regulator, residues 170 to 204; numbered along this chain, Q6ZN01 (parent)
chain: LKLEELTVSELRQQLRLRGLPVSGTKSMLLERMRG
B2: Storkhead-box protein 2, residues 64 to 141; numbered along this chain, Q9P2F5 (parent)
chain: SPISQSQFIPLGEILCLAISAMNSARKPVTQEALMEHLTTCFPGVPTPSQEILRHTLNTLVRERKIYPTPDGYFIVTP

Variants of: B1
Assay: abundance fitness (aPCA) (normalised: wild type 0, dead -1); higher = more abundant; growth selection in yeast, the domain comes from the species named
Settings: Homo sapiens

Variant	abundance fitness
L3E	-0.249 ± 0.1
L3F	0.065 ± 0.16
L3K	0.017 ± 0.11
L3P	-0.14 ± 0.087
L3S	-0.22 ± 0.088
L3D	-0.098 ± 0.12
L3R	-0.416 ± 0.064
L3G	-0.304 ± 0.05
L3C	-1.03 ± 0.15
L3W	-0.434 ± 0.089
L3A	-0.275 ± 0.16
L3Y	-0.556 ± 0.16
L3Q	-0.296 ± 0.089
L3V	-0.272 ± 0.097
E4L	-0.919 ± 0.085
E4N	-0.017 ± 0.21
E4P	-0.394 ± 0.29
E4Y	-0.804 ± 0.18
E4A	-0.667 ± 0.12
E4G	-0.574 ± 0.055
E4S	-0.23 ± 0.11
E4V	-1.08 ± 0.16
E4Q	-0.317 ± 0.16

Variant	abundance fitness
E4H	-0.046 ± 0.14
E4M	-0.41 ± 0.071
E4T	-0.171 ± 0.061
E4F	-0.679 ± 0.1
E4D	-0.035 ± 0.11
E4I	-0.464 ± 0.23
E4C	-0.518 ± 0.14
L1E	0.136 ± 0.086
L1Y	0.02 ± 0.24
L1G	-0.364 ± 0.21
L1S	-0.12 ± 0.068
L1I	0.108 ± 0.073
L1N	0.092 ± 0.45
L1V	-0.134 ± 0.11
L1W	-0.045 ± 0.11
L1F	-0.19 ± 0.13
L1R	-0.262 ± 0.14
L1K	-0.05 ± 0.22
E5A	-0.218 ± 0.069
E5L	-0.548 ± 0.1
E5C	-0.183 ± 0.18
E5P	-0.335 ± 0.19
E5S	-0.188 ± 0.074

Variant	abundance fitness
E5V	-0.329 ± 0.088
E5R	-0.239 ± 0.084
E5Y	-0.424 ± 0.11
E5Q	-0.306 ± 0.1
E5W	-0.776 ± 0.14
E5G	-0.359 ± 0.1
E5T	-0.271 ± 0.11
K2D	-0.496 ± 0.26
K2S	-0.201 ± 0.11
K2E	0.007 ± 0.067
K2N	-0.128 ± 0.17
K2C	-0.136 ± 0.07
K2R	-0.042 ± 0.1
K2L	-0.444 ± 0.08
K2W	-0.159 ± 0.14
K2P	-0.572 ± 0.12
L6H	-0.434 ± 0.11
L6E	-0.369 ± 0.11
L6A	-0.314 ± 0.067
L6C	-0.299 ± 0.19
L6I	-0.266 ± 0.13
L6G	-0.533 ± 0.059
L6D	-0.356 ± 0.14

Variants of: B2
Assay: as above
Settings: Homo sapiens

Variant	abundance fitness
P78H	-0.191 ± 0.15
P78K	-0.086 ± 0.21
P78V	-0.182 ± 0.09
P78T	-0.191 ± 0.085
P78R	0.049 ± 0.082
P78E	-0.44 ± 0.29
P78Y	-0.098 ± 0.14
P78G	-0.239 ± 0.11
P78F	-0.37 ± 0.2
P78S	-0.038 ± 0.064
P78M	-0.289 ± 0.12
P78C	0.072 ± 0.2
P78A	-0.05 ± 0.064
P78N	-0.219 ± 0.18
F74I	-0.001 ± 0.067
F74M	0.073 ± 0.078
F74D	-0.038 ± 0.11
F74Y	-0.065 ± 0.14
F74W	-0.002 ± 0.067
F74K	0.024 ± 0.053
F74P	-0.445 ± 0.064
F74V	-0.003 ± 0.051
F74N	-0.361 ± 0.27
F74C	-0.042 ± 0.074
F74L	-0.046 ± 0.044

Variant	abundance fitness
F74T	-0.031 ± 0.062
F74A	0.095 ± 0.056
F74Q	0.006 ± 0.078
F74G	0.052 ± 0.035
F74H	-0.248 ± 0.13
F74S	0.077 ± 0.057
F74E	-0.004 ± 0.086
T69G	-0.003 ± 0.032
T69K	-0.249 ± 0.1
T69P	-0.703 ± 0.087
T69M	-0.148 ± 0.075
T69R	-0.015 ± 0.028
T69Y	-0.358 ± 0.13
T69N	-0.042 ± 0.13
T69W	-0.362 ± 0.065
T69V	-0.13 ± 0.044
T69A	-0.028 ± 0.061
T69L	-0.195 ± 0.042
T69H	-0.071 ± 0.075
T69E	-0.095 ± 0.041
T69D	-0.04 ± 0.11
T69I	-0.298 ± 0.15
T69Q	-0.036 ± 0.065
I75W	-0.057 ± 0.049
I75S	0.038 ± 0.049

Variant	abundance fitness
I75M	0.1 ± 0.058
I75C	0.017 ± 0.082
I75L	-0.017 ± 0.039
I75N	-0.177 ± 0.15
I75K	-0.219 ± 0.1
I75P	-0.039 ± 0.051
I75Q	-0.026 ± 0.059
I75H	-0.172 ± 0.17
I75A	-0.04 ± 0.057
I75Y	-0.013 ± 0.054
I75G	-0.033 ± 0.04
I75V	0.024 ± 0.051
I75F	-0.109 ± 0.073
P70C	-0.051 ± 0.071
P70T	0.037 ± 0.041
P70W	-0.141 ± 0.047
P70S	0.016 ± 0.037
P70K	0.041 ± 0.068
P70V	0.011 ± 0.047
P70D	0.091 ± 0.063
P70F	-0.081 ± 0.07
P70A	0.023 ± 0.045
P70Q	0.034 ± 0.065
P70R	0.05 ± 0.037
P70Y	-0.061 ± 0.079

Variant	abundance fitness
P70M	-0.097 ± 0.077
P70N	0.036 ± 0.15
P70E	-0.004 ± 0.078
P70H	-0.143 ± 0.085
P70I	0.021 ± 0.11
P70G	-0.027 ± 0.039
T77I	-0.261 ± 0.082
T77N	0.059 ± 0.085
T77H	-0.084 ± 0.079
T77R	0.09 ± 0.048
T77M	-0.164 ± 0.12
T77Y	-0.084 ± 0.071
T77S	0.024 ± 0.07
T77E	0.034 ± 0.088
T77A	-0.019 ± 0.057
T77W	-0.111 ± 0.049
T77F	-0.073 ± 0.076
T77C	0.04 ± 0.072
T77Q	-0.099 ± 0.078
T77V	-0.065 ± 0.046
T77G	-0.057 ± 0.048
T77D	0.077 ± 0.06
T77P	-0.003 ± 0.088
T77L	-0.072 ± 0.066
Y73T	-0.174 ± 0.11

Variant	abundance fitness
Y73L	-0.029 ± 0.042
Y73M	-0.108 ± 0.072
Y73R	-0.055 ± 0.048
Y73Q	-0.078 ± 0.054
Y73N	0.043 ± 0.23
Y73V	-0.171 ± 0.063
Y73S	-0.011 ± 0.059
Y73K	-0.085 ± 0.1
Y73D	-0.136 ± 0.14
Y73E	-0.089 ± 0.077
Y73W	-0.041 ± 0.06
Y73I	-0.261 ± 0.16
Y73P	-0.149 ± 0.055
V76K	0.032 ± 0.099
V76M	0.035 ± 0.075
V76C	0.03 ± 0.069
V76T	-0.03 ± 0.057
V76P	0.001 ± 0.051
V76G	-0.011 ± 0.036
V76F	-0.012 ± 0.096
V76W	-0.028 ± 0.051
V76A	0.001 ± 0.041
V76N	0.05 ± 0.078
V76I	-0.363 ± 0.12
V76Y	-0.087 ± 0.11

Variant	abundance fitness
V76H	-0.114 ± 0.092
V76Q	-0.007 ± 0.078
V76E	0.037 ± 0.064
V76S	0.092 ± 0.044
V76D	-0.102 ± 0.089
Y67C	0.039 ± 0.053
Y67L	-0.029 ± 0.042
Y67W	-0.049 ± 0.049
Y67Q	-0.017 ± 0.091
Y67A	0.03 ± 0.048
Y67N	-0.06 ± 0.096
Y67I	0.02 ± 0.12
Y67F	-0.021 ± 0.065
Y67H	-0.006 ± 0.1
Y67K	0.083 ± 0.11
Y67M	0.102 ± 0.061
Y67V	-0.02 ± 0.039
Y67T	-0.05 ± 0.058
Y67P	-0.566 ± 0.065
Y67S	0.001 ± 0.043
Y67R	0.022 ± 0.035
Y67G	-0.053 ± 0.036
E63V	-0.049 ± 0.047
E63P	-1.2 ± 0.11
E63N	-0.028 ± 0.088

Variant	abundance fitness
E63G	-0.054 ± 0.035
E63Y	-0.033 ± 0.13
E63S	-0.018 ± 0.033
E63I	-0.234 ± 0.13
E63W	-0.075 ± 0.049
E63R	-0.015 ± 0.029
E63K	0.011 ± 0.05
E63M	-0.051 ± 0.077
E63T	-0.049 ± 0.053
E63H	-0.006 ± 0.075
K65M	-0.171 ± 0.064
K65F	-0.084 ± 0.093
K65T	-0.03 ± 0.063
K65R	-0.031 ± 0.038
K65Q	0.078 ± 0.067
K65D	-0.443 ± 0.089
K65V	0 ± 0.048
K65W	-0.209 ± 0.047
K65L	-0.06 ± 0.039
K65G	-0.541 ± 0.037
K65H	0.013 ± 0.084
K65I	-0.21 ± 0.21
K65P	-0.967 ± 0.1
K65C	-0.208 ± 0.072
K65N	-0.493 ± 0.31

Variant	abundance fitness
K65S	-0.082 ± 0.058
K65A	-0.134 ± 0.054
K65E	-0.167 ± 0.079
K65Y	-0.154 ± 0.14
R64N	-0.043 ± 0.13
R64L	-0.124 ± 0.044
R64Q	-0.043 ± 0.099
R64K	0.061 ± 0.11
R64S	-0.021 ± 0.045
R64C	-0.128 ± 0.068
R64I	-0.619 ± 0.14
R64Y	-0.174 ± 0.17
R64G	0.031 ± 0.034
R64F	-0.286 ± 0.082
R64P	-1.09 ± 0.14
R64E	0.112 ± 0.075
R64H	0.039 ± 0.12
R64M	-0.138 ± 0.079
R64A	-0.029 ± 0.041
R64D	-0.029 ± 0.09
R64V	-0.22 ± 0.049
R64W	-0.211 ± 0.041
D71W	-0.189 ± 0.047
D71S	-0.05 ± 0.046
D71G	0.018 ± 0.037

Variant	abundance fitness
D71N	-0.012 ± 0.16
D71E	-0.005 ± 0.069
D71M	-0.054 ± 0.083
D71F	-0.099 ± 0.056
D71H	0.031 ± 0.081
D71T	0.004 ± 0.079
D71V	-0.022 ± 0.063
D71A	-0.002 ± 0.049
D71I	-0.313 ± 0.25
D71Y	-0.243 ± 0.099
D71K	0.073 ± 0.088
D71R	-0.088 ± 0.037
D71Q	-0.054 ± 0.075
D71P	-0.223 ± 0.054
D71C	-0.154 ± 0.061
P68S	0.059 ± 0.049
P68W	-0.057 ± 0.047
P68D	-0.042 ± 0.14
P68T	0.04 ± 0.093
P68L	0.017 ± 0.035
P68C	0.044 ± 0.043
P68M	-0.038 ± 0.056
P68K	-0.082 ± 0.23
P68G	-0.003 ± 0.027
P68H	0.051 ± 0.093

Variant	abundance fitness
P68N	0.009 ± 0.15
P68R	0 ± 0.034
P68V	0.082 ± 0.036
P68I	-0.046 ± 0.12
P68F	-0.014 ± 0.076
P68A	0.065 ± 0.049
P68Y	-0.141 ± 0.086
G72M	-0.209 ± 0.081
G72K	-0.272 ± 0.14
G72N	-0.16 ± 0.19
G72E	-0.078 ± 0.074
G72S	-0.121 ± 0.04
G72R	-0.32 ± 0.032
G72W	-0.662 ± 0.072
G72C	-0.383 ± 0.077
G72D	-0.033 ± 0.11
G72I	-0.613 ± 0.17
G72A	-0.304 ± 0.049
G72L	-0.461 ± 0.048
G72P	-0.614 ± 0.059
G72Q	-0.034 ± 0.05
G72V	-0.568 ± 0.051
G72T	-0.132 ± 0.095
G72Y	-0.527 ± 0.23
G72H	-0.293 ± 0.073

Variant	abundance fitness
I66C	0.016 ± 0.059
I66W	-0.847 ± 0.079
I66V	-0.041 ± 0.048
I66Y	-0.971 ± 0.27
I66A	-0.173 ± 0.05
I66H	-1 ± 0.24
I66F	-0.937 ± 0.13
I66Q	-1.01 ± 0.18
I66D	-1.02 ± 0.27
I66E	-1.08 ± 0.21
I66R	-1.17 ± 0.12
I66M	-0.249 ± 0.077
I66G	-0.894 ± 0.074
I66L	-0.05 ± 0.041
I66T	-0.38 ± 0.055
